From PMC5515580

What was measured:
Recombinant PKA = Recombinant PKA (UniProt P17612)
MAST3-HA (human) = MAST3-HA (human) (UniProt O60307)
Sequence of MAST3-HA (human) (O60307 313-1021): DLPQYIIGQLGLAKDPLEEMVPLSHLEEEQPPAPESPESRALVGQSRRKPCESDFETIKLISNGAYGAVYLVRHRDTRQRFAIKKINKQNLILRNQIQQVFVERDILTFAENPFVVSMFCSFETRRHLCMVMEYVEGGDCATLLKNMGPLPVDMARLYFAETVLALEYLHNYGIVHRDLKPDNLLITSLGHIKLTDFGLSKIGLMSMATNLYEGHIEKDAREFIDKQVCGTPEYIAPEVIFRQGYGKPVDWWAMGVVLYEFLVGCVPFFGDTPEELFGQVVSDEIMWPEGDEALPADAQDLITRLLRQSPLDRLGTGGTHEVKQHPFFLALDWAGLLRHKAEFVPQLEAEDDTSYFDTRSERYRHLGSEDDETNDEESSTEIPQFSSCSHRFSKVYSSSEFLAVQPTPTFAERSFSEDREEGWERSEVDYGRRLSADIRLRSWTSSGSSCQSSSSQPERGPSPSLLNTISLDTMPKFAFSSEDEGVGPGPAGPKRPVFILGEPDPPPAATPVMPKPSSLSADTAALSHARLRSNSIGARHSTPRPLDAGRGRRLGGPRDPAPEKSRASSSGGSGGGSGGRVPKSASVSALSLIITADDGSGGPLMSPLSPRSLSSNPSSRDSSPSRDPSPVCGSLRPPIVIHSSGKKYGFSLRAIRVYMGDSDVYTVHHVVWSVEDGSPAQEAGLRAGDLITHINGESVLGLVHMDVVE

Sequence of 6xHis-ARPP-16 (P56211 17-112): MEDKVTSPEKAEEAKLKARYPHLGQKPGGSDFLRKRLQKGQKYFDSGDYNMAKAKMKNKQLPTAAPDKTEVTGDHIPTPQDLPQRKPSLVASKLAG
Sequence of P-S46-ARPP-16 (P56211 17-112): as above

With “6xHis-ARPP-16 (from UniProt P56211-2 1-96) (natural protein)” the Km of phosphorylation of Ser88 by PKA (32P incorporation, 10-500 nM substrate; Figure 1d) (Recombinant PKA) was 1.69 µM, the Km of phosphorylation of Ser46 by immunoprecipitated MAST3 (32P incorporation, 10-500 nM substrate, 2 min; Figure 1b) (MAST3-HA (human)) was 0.09 µM and the Km of phosphorylation of Ser46 by immunoprecipitated MAST3 (32P incorporation, 10-500 nM substrate, 2 min; Figure 1—figure supplement 1) (MAST3-HA (human)) was 0.092 µM.
Work on “P-S46-ARPP-16 (from UniProt P56211-2 1-96) (natural protein)” yielded a Km of phosphorylation of Ser88 by PKA (32P incorporation, 10-500 nM substrate; Figure 1d) (Recombinant PKA) of 0.87 µM.
